The values below come from patent US20260151420A1.

The target in the assay is mouse LAG3 on Pmel-1 or Pmel-1xLy108 KO splenocytes (mouse) (UniProt Q61790). In words: cell-based or functional assay.
Sequence of UniProt Q61790 (Q61790 24-521): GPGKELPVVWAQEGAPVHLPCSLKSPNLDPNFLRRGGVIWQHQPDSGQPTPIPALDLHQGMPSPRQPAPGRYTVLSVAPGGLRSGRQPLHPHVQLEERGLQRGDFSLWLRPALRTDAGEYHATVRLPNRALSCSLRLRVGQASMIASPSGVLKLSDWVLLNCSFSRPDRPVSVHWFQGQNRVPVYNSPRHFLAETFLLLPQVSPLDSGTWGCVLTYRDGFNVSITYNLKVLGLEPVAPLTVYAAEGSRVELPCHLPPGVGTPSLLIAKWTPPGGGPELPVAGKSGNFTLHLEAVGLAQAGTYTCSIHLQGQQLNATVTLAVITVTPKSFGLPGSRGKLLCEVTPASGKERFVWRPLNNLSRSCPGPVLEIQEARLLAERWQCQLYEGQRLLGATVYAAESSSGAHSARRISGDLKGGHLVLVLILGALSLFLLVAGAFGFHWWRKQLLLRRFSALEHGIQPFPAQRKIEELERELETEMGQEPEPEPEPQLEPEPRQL

“anti-LAG3 blocking antibody (BioXCell, clone: C9B7W, cat: BE0174)” yielded an IFN-γ production (ELISA), Pmel-1×Ly108 KO cells with anti-LAG3 compared to Ly108-expressing cells of 3 fold and an IFN-γ secretion (ELISA) of Pmel-1 splenocytes activated with anti Lag3 (10 µg/ml), compared to no treatment of 1.5 fold.
